Molecular target: srrt_arath SE (UniProt Q9ZVD0)
UniProt Q9ZVD0, sequence (Q9ZVD0 whole entry): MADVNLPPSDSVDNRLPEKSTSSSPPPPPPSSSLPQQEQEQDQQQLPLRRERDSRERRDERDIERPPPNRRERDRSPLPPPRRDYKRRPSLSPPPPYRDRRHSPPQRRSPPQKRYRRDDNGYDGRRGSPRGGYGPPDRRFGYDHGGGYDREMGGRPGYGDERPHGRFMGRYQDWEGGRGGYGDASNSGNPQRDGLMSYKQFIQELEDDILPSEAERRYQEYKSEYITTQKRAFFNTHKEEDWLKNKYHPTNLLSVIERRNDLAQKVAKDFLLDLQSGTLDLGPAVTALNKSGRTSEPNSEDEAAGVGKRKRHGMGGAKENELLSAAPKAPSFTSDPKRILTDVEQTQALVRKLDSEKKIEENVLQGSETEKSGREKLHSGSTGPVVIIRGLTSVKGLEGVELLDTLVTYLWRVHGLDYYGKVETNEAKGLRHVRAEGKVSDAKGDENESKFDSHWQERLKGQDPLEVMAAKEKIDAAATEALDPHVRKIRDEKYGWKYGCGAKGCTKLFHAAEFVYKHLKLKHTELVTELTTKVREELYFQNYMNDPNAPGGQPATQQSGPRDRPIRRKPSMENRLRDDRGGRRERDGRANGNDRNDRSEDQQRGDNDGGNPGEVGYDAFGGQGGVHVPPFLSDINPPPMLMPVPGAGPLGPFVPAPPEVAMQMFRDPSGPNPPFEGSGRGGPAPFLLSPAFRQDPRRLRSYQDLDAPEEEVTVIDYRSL

effect of a mutation on the interaction: disrupting interaction
Substance: ATP-dependent helicase BRM (Arabidopsis thaliana (Mouse-ear cress)), Q6EVK6 E1747A

Reference: IntAct's records for PubMed 29769717
